In patent publication US20180327499A1 (INSERM INSTITUT NATIONAL DE LA SANT ET DE LA RECHERCHE M …, published 2018) one finds EC50 and Kd data, which are given here for one molecule.

Test [1] addresses T1, recombinant human NKG2D/Fc chimera (R&D Systems) (human, UniProt P26718 78-216).
T1 construct: Bought reagent; The order Fc then NKG2D follows the printed name 'Fc-NKG2D'; also called Fc-NKG2D; NKGD2-Fc human; Fc part of the bought chimera not given
T1 sequence (looked up): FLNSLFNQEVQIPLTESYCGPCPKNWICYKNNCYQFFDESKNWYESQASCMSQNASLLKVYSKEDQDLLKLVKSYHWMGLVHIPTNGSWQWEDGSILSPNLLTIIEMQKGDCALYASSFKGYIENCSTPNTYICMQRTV
Nature of the test: ELISA on plate coated with Fc-NKG2D, dose-response, one site total binding fit. For orientation: In an ELISA, binding on a coated surface is turned into a signal by an enzyme label.

Test [2] concerns the target T2, NKG2D on HEK-293T cells co-transfected with NKG2D and DAP10 (UniProt P26718 1-216, limits assumed).
T2 construct: whole, on cells; DAP10 is co-expressed for surface expression; also called NKG2D-DAP10 co-transfected HEK293T cells
T2 sequence (looked up): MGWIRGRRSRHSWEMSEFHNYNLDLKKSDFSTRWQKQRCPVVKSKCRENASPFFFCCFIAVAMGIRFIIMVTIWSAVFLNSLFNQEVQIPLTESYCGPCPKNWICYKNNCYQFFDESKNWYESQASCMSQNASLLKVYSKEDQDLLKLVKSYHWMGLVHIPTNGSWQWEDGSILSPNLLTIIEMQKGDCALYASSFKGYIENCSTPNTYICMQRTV
Put plainly: flow cytometry on NKG2D/DAP10-transfected HEK-293 cells, one site total binding fit.

For orientation: EC50 means the midpoint of the concentration-response curve. By Kd is commonly meant the constant that tells how readily two partners part at equilibrium.

B1: sdAb ET2F9 (VHH)
VHH: QVQLVQSGGGLVQPGGSLRLSCAASGFTFDDYAMSWVRQAPGKGLEWVSAISWSGRTTYYAESMKGRFTTSRDNAKNTLYLQMNSLKPEDTALYYCARGDVAIRGNLDAWGQGTQVTVSS
notes: It carries a 6His tag (detected with anti-6His / anti-his antibodies); also called ET2F09; sdAb F9
B1: the EC50 in test [1] amounted to 44 nM. This molecule yielded a dissociation constant (Kd) in test [2] of 625 nM.
